Data from publication PMC7948495, “The flexible N-terminus of BchL autoinhibits activity through interaction with its [4Fe-4S] cluster and released upon ATP binding” (The Journal of Biological Chemistry, 2020).

Molecular target: the molecule itself
Assay: crystal structure; nucleotide-free BchL crystallised anaerobically at 15 °C by vapor diffusion; 100 μM dimeric BchL in 100 mM Hepes pH 7.5, 150 mM NaCl, 10% glycerol, 1.7 mM dithionite; well 0.6 M NaCl, 0.1 M MES:NaOH pH 6.5, 20% PEG 4000; 2.6 Å

B1: BchL (L-protein of dark-operative protochlorophyllide oxidoreductase, DPOR) from Rhodobacter sphaeroides (enzyme, UniProt Q9RFD6 1-297, looked up)
chain: MSPKDLTIPTGADGEGSVQVHLDEADKITGAKVFAVYGKGGIGKSTTSSNLSAAFSILGKRVLQIGCDPKHDSTFTLTGSLVPTVIDVLKDVDFHPEELRPEDFVFEGFNGVMCVEAGGPPAGTGCGGYVVGQTVKLLKQHHLLDDTDVVIFDVLGDVVCGGFAAPLQHADQAVVVTANDFDSIYAMNRIIAAVQAKSKNYKVRLAGCVANRSRATDEVDRFCKETNFRRLAHMPDLDAIRRSRLKKKTLFEMDEDQDVLAARAEYIRLAESLWRGLDPIDPHSLPDRDIFELLGFD
notes: BchL, Rhodobacter sphaeroides; coding region PCR-amplified from genomic DNA and cloned into pRSF-Duet 1 or pET-Duet 1; a TEV protease site follows the His tag; Homodimer with one [4Fe-4S] cluster at the dimer interface, ligated by two cysteines from each subunit; also called WT BchL
binding result: binds
